We go through two molecules from patent US20120164066A1 (University of Pennsylvania, published 2012).

The target of assay [1] is T1, Her2/neu receptor expressed on cells (T6-17 cells; SKBR3 cells) (UniProt P04626 23-1255).
T1 construct: whole, on cells; also called p185 HER2/neu
Briefly: FACS on T6-17 cells, 45 min on ice, rabbit anti-His antibody and FITC anti-rabbit antibody. The method, then:
Experiments were conducted to determine whether the ALZ construct (SEQ ID NO. 5) could bind to T6-17 cells, which express the Her2/neu receptor. T6-17 cells were incubated with (dark line) or without (light line) ALZ for 45 min on ice and then with a rabbit anti-His antibody followed by a FITC-labeled anti-rabbit antibody. Other antigen-binding proteins were tested in this manner also.

The target in a further assay is T2, FcγIIIB Fc receptor (UniProt O75015 17-200).
T2 construct: The form used in the Biacore experiments is not described; also called FcγIIIB receptor
T2 sequence (O75015 17-200): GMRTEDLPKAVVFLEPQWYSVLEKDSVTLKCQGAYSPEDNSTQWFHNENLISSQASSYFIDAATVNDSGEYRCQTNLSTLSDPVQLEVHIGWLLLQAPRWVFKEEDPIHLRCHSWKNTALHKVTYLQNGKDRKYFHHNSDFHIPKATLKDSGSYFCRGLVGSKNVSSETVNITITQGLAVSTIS
Briefly: Biacore. How it is done: In some cases, antigen-binding protein can interact with an Fc receptor, which may facilitate cell-mediated cytotoxicity. Biacore experiments were conducted to determine whether the antigen-binding protein AHNP-CH2-mimic could bind to the FcγIIIB Fc receptor. […] The interaction between AFc, an antigen binding protein consisting of AHNP linked to the Fc region of an IgG1 antibody, and FcγIIIB was examined for comparative purposes. […] Since FcγIIIB is known to have low affinity to IgG1, the level of affinity observed for AHNP-CH2-mimic is very encouraging. Furthermore, a synthetic CH2-mimic peptide was also observed to compete with the monoclonal antibody 4D5 (IgG1) for binding to the FcγIIIB receptor when analyzed in Biacore experiments. Despite the observed competition for FcγIIIB, direct binding between the CH2-mimic peptide alone and FcγIIIB was not detected, possibly due to the inability for the interaction to be detected by Biacore.
(In general: SPR reads the build-up and loss of mass on a sensor chip optically.)

B1: ALZ (designed binder)
chain: MAFCDGFYACYMDVGGGGGSMASDFLKHCQADHLLDEKGRAQCLLQREMVQSLEQQLVLEKEKLSAMQAHLAGKMALTKASSVASSDKLEHHHHHH
notes: AHNP on the N-terminus of the leucine zipper domain of human FOXP3, with a His-tag; The LZ domain is said to form dimers and tetramers; also called ALZ construct
Turning to B1, the binding result in assay [1] is on record as “binds”.

B2: synthetic CH2-mimic peptide (peptide)
peptide: FPAPLAPGGLYLGG
In the case of B2, in the assay with FcγIIIB Fc receptor, the binding result is “no binding”.
